Laboratory results: patent US20260139007A1 (SANFORD BURNHAM PREBYS MEDICAL DISCOVERY INSTITUTE, published 2026)
Values belong to the binder of their own block, whether it stands above or below them. Numbered stars: 1 amine (or outer) side, 2 acyl side, 3 side chain; on linkers, the order of the positions; unused ones are H or OH. Bridge positions count the residues as written; N and C are the ends. Square brackets hold non-standard residues; d marks the D form. Side chains are listed from the residue outwards. Ends that are not written are not given here. * marks the point of attachment. γGlu = O=C(O)[C@H](CCC(=O)[*:2])N[*:1]; βAsp = O=C(O)[C@H](CC(=O)[*:2])N[*:1]; Palmitoyl = CCCCCCCCCCCCCCCC(=O)*; Lauroyl = CCCCCCCCCCCC(=O)*; Octanoyl = CCCCCCCC(=O)*; Dodecyl = CCCCCCCCCCCC*; βAla = NCCC(=O)O

Key:
[1] = molecular target: T1, EphA4 Fc (human EphA4 Fc, #CJ75, Novoprotein, or mouse EphA4 Fc, #641-A4, R&D Systems/BioTechne) (human or mouse, UniProt P54764 20-547); assay: competition ELISA, inhibition of ephrin-A5 AP binding to immobilized EphA4 Fc
T1 construct: extracellular domain; bought reagents; also called EphA4 extracellular domain fused to the Fc portion of an antibody; not shown: Fc portion of an antibody

[2] = molecular target: T1, EphA4 Fc (human EphA4 Fc, #CJ75, …); assay: competition ELISA, inhibition of ephrin-A5 AP binding to immobilized EphA4 Fc, with 40 mg/mL delipidated HSA
[3] = molecular target: T1, EphA4 Fc (human EphA4 Fc, #CJ75, …); assay: competition ELISA, ephrin-A5 AP on immobilized EphA4 Fc
[4] = molecular target: FLAG-tagged EphA4 stably expressed in immortalized cells (HEK-EphA4 cells); assay: cell-based or functional assay
[5] = molecular target: T1, EphA4 Fc (human EphA4 Fc, #CJ75, …); assay: competition ELISA, ephrin-A5 AP on immobilized EphA4 Fc, same experiments

T1 sequence (P54764 20-547): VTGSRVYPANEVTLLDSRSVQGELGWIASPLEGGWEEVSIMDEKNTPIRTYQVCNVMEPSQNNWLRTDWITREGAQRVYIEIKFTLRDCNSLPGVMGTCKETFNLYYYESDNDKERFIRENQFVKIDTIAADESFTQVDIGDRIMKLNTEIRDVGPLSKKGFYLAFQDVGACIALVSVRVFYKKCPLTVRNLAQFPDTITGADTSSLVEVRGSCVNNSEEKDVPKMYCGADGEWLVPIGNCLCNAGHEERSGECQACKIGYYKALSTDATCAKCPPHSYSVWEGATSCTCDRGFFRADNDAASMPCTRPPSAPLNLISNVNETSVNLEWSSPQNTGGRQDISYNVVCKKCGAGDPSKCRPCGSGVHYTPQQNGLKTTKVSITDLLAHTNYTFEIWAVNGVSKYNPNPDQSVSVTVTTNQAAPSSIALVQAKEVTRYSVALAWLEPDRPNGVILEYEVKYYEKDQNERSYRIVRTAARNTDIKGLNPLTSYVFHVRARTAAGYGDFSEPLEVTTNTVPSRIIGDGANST

B1: compound 11 (peptide)
peptide: [βAla]PYCVYK([γGlu-Lauroyl])[βAla]SWSC-NH2
modifications: disulfide 4-12; N-terminus assumed
SMILES: CCCCCCCCCCCC(=O)N[C@@H](CCC(=O)NCCCC[C@@H]1NC(=O)[C@H](Cc2ccc(O)cc2)NC(=O)[C@H](C(C)C)NC(=O)[C@@H](NC(=O)[C@H](Cc2ccc(O)cc2)NC(=O)[C@@H]2CCCN2C(=O)CCN)CSSC[C@@H](C(N)=O)NC(=O)[C@H](CO)NC(=O)[C@H](Cc2c[nH]c3ccccc23)NC(=O)[C@H](CO)NC(=O)CCNC1=O)C(=O)O
notes: also called peptide 11; βAPYCVYK(lauroyl-γE)βASWSC-NH2
IC50 [1]: 84 nM

B3: compound 9 (peptide)
peptide: [βAla]PYCVYK([Gly-Dodecyl])[βAla]SWSC-NH2
modifications: disulfide 4-12
notes: also called peptide 9; βAPYCVYK(lauryl-G)βASWSC-NH2
IC50 [1]: 590 nM | fold decrease in potency against APY-d3 similarly modified with a C8 lipid [3]: > 10 fold

B4: compound 19 (peptide)
peptide: XPYCVYRXSWSCGGKG
modifications: β-alanine at 1 and 8; palmitoyl-γGlu-γGlu on the side chain of the Lys of the C-terminal GGKG; C-terminal amide; disulfide bond Cys4-Cys12 (cyclic)
notes: also called peptide 19
IC50 [1]: 160 nM

B5: APY-d3-PEG4 (peptide)
peptide: XPYCVYRXSWSCXXX
modifications: β-alanine at 1 and 8; disulfide bond Cys4-Cys12 (Cyc (4,12)); three 6-aminohexanoic acid (Ahx) residues and propargyl-glycine (Pra) after Cys12; 30 kDa methoxy-PEG on Pra through a triazole (click chemistry); free C-terminal acid (-OH)
IC50 for inhibition of EphA4 tyrosine phosphorylation (pY596) induced by ephrin-A5 Fc in HEK-EphA4 cells, ELISA of cell lysates [4]: ~700 nM | fold loss of potency against APY-d3, EphA4 tyrosine phosphorylation in HEK-EphA4 cells [4]: ~2.5 fold

B8: compound 20 (peptide)
peptide: [βAla]PYCVYR[βAla]SWSCGGGSK([γGlu-γGlu-Palmitoyl])G-NH2
modifications: disulfide 4-12; N-terminus assumed
SMILES: CCCCCCCCCCCCCCCC(=O)N[C@@H](CCC(=O)N[C@@H](CCC(=O)NCCCC[C@H](NC(=O)[C@H](CO)NC(=O)CNC(=O)CNC(=O)CNC(=O)[C@@H]1CSSC[C@H](NC(=O)[C@H](Cc2ccc(O)cc2)NC(=O)[C@@H]2CCCN2C(=O)CCN)C(=O)N[C@@H](C(C)C)C(=O)N[C@@H](Cc2ccc(O)cc2)C(=O)N[C@@H](CCCNC(=N)N)C(=O)NCCC(=O)N[C@@H](CO)C(=O)N[C@@H](Cc2c[nH]c3ccccc23)C(=O)N[C@@H](CO)C(=O)N1)C(=O)NCC(N)=O)C(=O)O)C(=O)O
notes: also called peptide 20
IC50 [1]: 190 nM

B11: APY-d3-PEG2 (peptide)
peptide: XPYCVYRXSWSCXXK
modifications: β-alanine at 1 and 8; disulfide bond Cys4-Cys12 (cyclic); 30 kDa methoxy-PEG joined through linker2 at the C-terminus (amide formation with 30 kDa methoxy-PEG-(CH2)5COO-NHS on precursor 1, βAPYCVYRβASWSCβAβAK-NH2, SEQ ID NO: 36)
notes: also called βAPYCVYRβASWSC-linker2-PEG
IC50 [1]: 83 nM

B12: compound 16 (peptide)
peptide: XPYCVYRXSWSCGGKG
modifications: β-alanine at 1 and 8; myristoyl-γGlu-γGlu on the side chain of the Lys of the C-terminal GGKG; C-terminal amide; disulfide bond Cys4-Cys12 (cyclic)
notes: also called peptide 16
IC50 [1]: 77 nM | IC50 [2]: 1370 nM

B13: compound 17 (peptide)
peptide: [βAla]PYCVYK([γGlu-Palmitoyl])[βAla]SWSC-NH2
modifications: disulfide 4-12; N-terminus assumed
SMILES: CCCCCCCCCCCCCCCC(=O)N[C@@H](CCC(=O)NCCCC[C@@H]1NC(=O)[C@H](Cc2ccc(O)cc2)NC(=O)[C@H](C(C)C)NC(=O)[C@@H](NC(=O)[C@H](Cc2ccc(O)cc2)NC(=O)[C@@H]2CCCN2C(=O)CCN)CSSC[C@@H](C(N)=O)NC(=O)[C@H](CO)NC(=O)[C@H](Cc2c[nH]c3ccccc23)NC(=O)[C@H](CO)NC(=O)CCNC1=O)C(=O)O
notes: also called peptide 17; βAPYCVYK(palmitoyl-γE)βASWSC-NH2
IC50 [1]: 2300 nM

B14: compound 12 (peptide)
peptide: XPYCVYRXSWSCGGKG
modifications: β-alanine at 1 and 8; lauroyl on the side chain of the Lys of the C-terminal GGKG; C-terminal amide; disulfide bond Cys4-Cys12 (cyclic)
notes: also called peptide 12
IC50 [1]: 240 nM | IC50 [2]: 920 nM

B16: APY-d3-PEG1 (peptide)
peptide: XPYCVYRXSWSCXXK
modifications: β-alanine at 1 and 8; disulfide bond Cys4-Cys12 (cyclic); 30 kDa methoxy-PEG joined through linker1 at the C-terminus (amide formation with 30 kDa methoxy-PEG succinimidyl carboxymethyl ester on precursor 1, βAPYCVYRβASWSCβAβAK-NH2, SEQ ID NO: 36)
notes: also called βAPYCVYRβASWSC-linker1-PEG
IC50 [1]: 180 nM

B17: compound 10 (peptide)
peptide: [βAla]PYCVYK([βAsp-Lauroyl])[βAla]SWSC-NH2
modifications: disulfide 4-12; N-terminus assumed
SMILES: CCCCCCCCCCCC(=O)N[C@@H](CC(=O)NCCCC[C@@H]1NC(=O)[C@H](Cc2ccc(O)cc2)NC(=O)[C@H](C(C)C)NC(=O)[C@@H](NC(=O)[C@H](Cc2ccc(O)cc2)NC(=O)[C@@H]2CCCN2C(=O)CCN)CSSC[C@@H](C(N)=O)NC(=O)[C@H](CO)NC(=O)[C@H](Cc2c[nH]c3ccccc23)NC(=O)[C@H](CO)NC(=O)CCNC1=O)C(=O)O
notes: also called peptide 10; βAPYCVYK(lauroyl-βD)βASWSC-NH2
IC50 [1]: 110 nM

B18: compound 8 (peptide)
peptide: [βAla]PYCVYK(Lauroyl)[βAla]SWSC-NH2
modifications: disulfide 4-12; N-terminus assumed
SMILES: CCCCCCCCCCCC(=O)NCCCC[C@@H]1NC(=O)[C@H](Cc2ccc(O)cc2)NC(=O)[C@H](C(C)C)NC(=O)[C@@H](NC(=O)[C@H](Cc2ccc(O)cc2)NC(=O)[C@@H]2CCCN2C(=O)CCN)CSSC[C@@H](C(N)=O)NC(=O)[C@H](CO)NC(=O)[C@H](Cc2c[nH]c3ccccc23)NC(=O)[C@H](CO)NC(=O)CCNC1=O
notes: also called peptide 8; βAPYCVYK(lauroyl)βASWSC-NH2
IC50 [1]: 390 nM | fold decrease in potency against APY-d3 similarly modified with a C8 lipid [3]: > 10 fold

More lines, in order of falling IC50 [1], values ahead:

IC50 [1]: 70 nM | fold decrease in potency (IC50) against APY-d3 [5]: ~2 fold
B10: compound 3 (peptide)
peptide: [βAla]PYCVYK[βAla]SWSC-NH2
modifications: disulfide 4-12; N-terminus assumed
SMILES: CC(C)[C@@H]1NC(=O)[C@@H](NC(=O)[C@H](Cc2ccc(O)cc2)NC(=O)[C@@H]2CCCN2C(=O)CCN)CSSC[C@@H](C(N)=O)NC(=O)[C@H](CO)NC(=O)[C@H](Cc2c[nH]c3ccccc23)NC(=O)[C@H](CO)NC(=O)CCNC(=O)[C@H](CCCCN)NC(=O)[C@H](Cc2ccc(O)cc2)NC1=O
notes: also called peptide 3; βAPYCVYKβASWSC-NH2

IC50 [1]: 42 nM | IC50 [2]: 130 nM
B9: compound 6 (peptide)
peptide: [βAla]PYCVYK([Gly-octanyl])[βAla]SWSC-NH2
modifications: disulfide 4-12
notes: also called peptide 6; βAPYCVYK(octanyl-G)βASWSC-NH2

IC50 [1]: 34 nM | IC50 [2]: 110 nM
B2: compound 7 (peptide)
peptide: XPYCVYRXSWSCGGKG
modifications: β-alanine at 1 and 8; octanoyl on the side chain of the Lys of the C-terminal GGKG; C-terminal amide; disulfide bond Cys4-Cys12 (cyclic)
notes: also called peptide 7

IC50 [1]: 34 nM | IC50 [2]: 100 nM
B6: compound 4 (peptide)
peptide: [βAla]PYCVYK(Octanoyl)[βAla]SWSC-NH2
modifications: disulfide 4-12; N-terminus assumed
SMILES: CCCCCCCC(=O)NCCCC[C@@H]1NC(=O)[C@H](Cc2ccc(O)cc2)NC(=O)[C@H](C(C)C)NC(=O)[C@@H](NC(=O)[C@H](Cc2ccc(O)cc2)NC(=O)[C@@H]2CCCN2C(=O)CCN)CSSC[C@@H](C(N)=O)NC(=O)[C@H](CO)NC(=O)[C@H](Cc2c[nH]c3ccccc23)NC(=O)[C@H](CO)NC(=O)CCNC1=O
notes: also called peptide 4; βAPYCVYK(octanoyl)βASWSC-NH2

IC50 [1]: 26 nM | IC50 [2]: 75 nM
B15: compound 5 (peptide)
peptide: [βAla]PYCVYK(Octanoyl)[βAla]SWSCGGRG-NH2
modifications: disulfide 4-12; N-terminus assumed
SMILES: CCCCCCCC(=O)NCCCC[C@@H]1NC(=O)[C@H](Cc2ccc(O)cc2)NC(=O)[C@H](C(C)C)NC(=O)[C@@H](NC(=O)[C@H](Cc2ccc(O)cc2)NC(=O)[C@@H]2CCCN2C(=O)CCN)CSSC[C@@H](C(=O)NCC(=O)NCC(=O)N[C@@H](CCCNC(=N)N)C(=O)NCC(N)=O)NC(=O)[C@H](CO)NC(=O)[C@H](Cc2c[nH]c3ccccc23)NC(=O)[C@H](CO)NC(=O)CCNC1=O
notes: also called peptide 5

IC50 [1]: 15 nM
B7: APY-d3-PEG3 (peptide)
peptide: XPYCVYRXSWSCXK
modifications: β-alanine at 1 and 8; disulfide bond Cys4-Cys12 (cyclic); 30 kDa methoxy-PEG joined at the C-terminus through an oxime linkage (APY-d3-βAla-glyoxyl with methoxy-PEG-CONH(CH2)2-ONH2)
notes: also called βAPYCVYRβASWSC-linker3-PEG
